# Results reported in patent US20220402995A1 (TOSOH, published 2022).
# Biological target: T1, VLP2 (virus-like particles of AAV2) (AAV2, UniProt P03135 1-735; P03135 1-598; P03135 1-533)
# T1 construct: Empty AAV2 capsid; background says about 60 protein molecules, VP1:VP2:VP3 = 1:1:10; Immobilised on the ELISA plate
# Experiment: ELISA on VLP2; binding after pH 3.0 51.1°C 15 min / untreated;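 note: binding of the heat-treated AAV-binding protein to VLP2, expressed as a percentage of the binding of the same protein without heating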
# Experimental: The residual activity was calculated by dividing the binding activity of AAV-binding protein to VLP2 when the heat treatment was performed by the binding activity of AAV-binding protein to VLP2 when the heat treatment was not performed.
# T1 sequence (P03135 whole entry, chain 1 of 3): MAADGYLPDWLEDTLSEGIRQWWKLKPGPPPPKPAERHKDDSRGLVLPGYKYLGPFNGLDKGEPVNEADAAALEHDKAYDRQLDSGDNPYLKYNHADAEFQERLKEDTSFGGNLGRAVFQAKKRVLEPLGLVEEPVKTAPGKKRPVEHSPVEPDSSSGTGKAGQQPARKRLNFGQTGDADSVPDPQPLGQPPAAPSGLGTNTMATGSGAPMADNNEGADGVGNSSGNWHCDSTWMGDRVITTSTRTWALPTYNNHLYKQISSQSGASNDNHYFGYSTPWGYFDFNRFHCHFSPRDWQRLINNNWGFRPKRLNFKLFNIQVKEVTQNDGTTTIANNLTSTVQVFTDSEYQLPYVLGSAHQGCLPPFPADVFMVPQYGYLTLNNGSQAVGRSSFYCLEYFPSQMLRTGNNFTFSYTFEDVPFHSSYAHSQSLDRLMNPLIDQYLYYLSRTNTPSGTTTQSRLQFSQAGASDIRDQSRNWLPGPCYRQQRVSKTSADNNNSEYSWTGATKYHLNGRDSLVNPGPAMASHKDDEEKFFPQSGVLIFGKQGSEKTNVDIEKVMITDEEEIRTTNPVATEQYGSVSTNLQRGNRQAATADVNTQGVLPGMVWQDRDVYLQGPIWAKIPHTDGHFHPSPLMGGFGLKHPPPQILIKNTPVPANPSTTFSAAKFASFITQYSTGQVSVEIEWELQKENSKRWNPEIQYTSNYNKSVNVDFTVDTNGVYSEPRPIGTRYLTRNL
# T1 sequence (P03135 139-735, tags left off, chain 2 of 3): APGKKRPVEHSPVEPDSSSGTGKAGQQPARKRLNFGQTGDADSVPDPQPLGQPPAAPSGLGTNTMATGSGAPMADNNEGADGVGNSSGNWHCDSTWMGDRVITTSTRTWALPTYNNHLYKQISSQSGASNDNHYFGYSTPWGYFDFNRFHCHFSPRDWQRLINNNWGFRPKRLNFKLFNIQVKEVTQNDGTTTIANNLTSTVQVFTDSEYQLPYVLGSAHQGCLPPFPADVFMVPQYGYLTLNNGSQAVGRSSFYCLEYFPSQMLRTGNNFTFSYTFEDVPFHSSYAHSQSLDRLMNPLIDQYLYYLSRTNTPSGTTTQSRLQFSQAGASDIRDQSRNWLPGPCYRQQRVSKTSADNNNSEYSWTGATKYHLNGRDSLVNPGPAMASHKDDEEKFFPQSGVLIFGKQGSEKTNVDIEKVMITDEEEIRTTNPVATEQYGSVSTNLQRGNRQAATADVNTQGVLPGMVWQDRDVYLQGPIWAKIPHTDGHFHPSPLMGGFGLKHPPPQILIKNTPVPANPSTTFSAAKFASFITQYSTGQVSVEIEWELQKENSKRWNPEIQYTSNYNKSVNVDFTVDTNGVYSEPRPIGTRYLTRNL
# T1 sequence (P03135 203-735, chain 3 of 3): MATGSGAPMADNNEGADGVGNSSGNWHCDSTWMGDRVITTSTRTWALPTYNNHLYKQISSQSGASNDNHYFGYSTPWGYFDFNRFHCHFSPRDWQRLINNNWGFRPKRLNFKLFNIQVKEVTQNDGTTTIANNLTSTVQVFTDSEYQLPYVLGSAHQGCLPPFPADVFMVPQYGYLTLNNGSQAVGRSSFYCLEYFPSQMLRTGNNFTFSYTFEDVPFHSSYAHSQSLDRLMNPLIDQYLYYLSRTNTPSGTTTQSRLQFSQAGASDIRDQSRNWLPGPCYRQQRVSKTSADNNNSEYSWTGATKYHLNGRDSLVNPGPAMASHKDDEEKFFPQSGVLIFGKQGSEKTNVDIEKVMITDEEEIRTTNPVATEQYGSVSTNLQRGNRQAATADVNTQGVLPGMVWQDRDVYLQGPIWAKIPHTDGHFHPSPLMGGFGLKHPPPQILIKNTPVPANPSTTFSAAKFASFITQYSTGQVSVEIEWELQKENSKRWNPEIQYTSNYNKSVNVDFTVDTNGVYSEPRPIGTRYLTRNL
row,Binder,Residual activity [%]
1,AAV-binding protein No. 58 (AVR2 + Ile319Phe) (receptor) MGSAGESVQFTLPKNEVQLNAYVLQEPPKGETCTYDWQLITHPRDYSGEMEGKHSQILKLSKLTPGLYEFKVIVEGQNAHSEGYVNVTVKPEPRKNRPPIAIVSPQFQEISLPTTSTVIDGSQSTDDDKIVQYHWEELKGPLREEKISEDTAILKLSKLVPGNYTFSLTVVDSDGATNSTTANLTVNKAVDHHHHHH,73.9
2,AAV-binding protein No. 59 (AVR2 + Ile319Asn) (receptor) MGSAGESVQNTLPKNEVQLNAYVLQEPPKGETCTYDWQLITHPRDYSGEMEGKHSQILKLSKLTPGLYEFKVIVEGQNAHSEGYVNVTVKPEPRKNRPPIAIVSPQFQEISLPTTSTVIDGSQSTDDDKIVQYHWEELKGPLREEKISEDTAILKLSKLVPGNYTFSLTVVDSDGATNSTTANLTVNKAVDHHHHHH,26.1

# Biological target: T1, VLP2 (virus-like particles of AAV2)
# Experiment: ELISA on VLP2; binding after pH 10.0 41.2°C 15 min / untreated
row,Binder,Residual activity [%]
1,"AAV-binding protein No. 136 (AVR8g + Glu335Val, Thr343Ser) (receptor) MGSAGESDQITLPKNEVQLNAYVLQVPPKGETCSYDWQLITHPRDYSGEMEGEHSQILKLSNLTPGLYEFKVIVEGQNAHSEGYVNVTVEPEPRKNRPPIAIVSPQFQEISLPTTSTVIDGSQSTDDDKIVQYHWEELKGPLREEKISEDTAILKLSKLVPGNYTFRLTVVDSDGATDSTTANLTVNKAVDHHHHHH",38.8
2,"AAV-binding protein No. 145 (AVR8g + Trp346Cys, Arg353Cys, His389Arg) (receptor) MGSAGESDQITLPKNEVQLNAYVLQEPPKGETCTYDCQLITHPCDYSGEMEGEHSQILKLSNLTPGLYEFKVIVEGQNARSEGYVNVTVEPEPRKNRPPIAIVSPQFQEISLPTTSTVIDGSQSTDDDKIVQYHWEELKGPLREEKISEDTAILKLSKLVPGNYTFRLTVVDSDGATDSTTANLTVNKAVDHHHHHH",63.5
3,"AAV-binding protein No. 139 (AVR8g + Leu369Gln, Pro374Leu) (receptor) MGSAGESDQITLPKNEVQLNAYVLQEPPKGETCTYDWQLITHPRDYSGEMEGEHSQILKQSNLTLGLYEFKVIVEGQNAHSEGYVNVTVEPEPRKNRPPIAIVSPQFQEISLPTTSTVIDGSQSTDDDKIVQYHWEELKGPLREEKISEDTAILKLSKLVPGNYTFRLTVVDSDGATDSTTANLTVNKAVDHHHHHH",85.2
4,"AAV-binding protein No. 149 (AVR8g + Val394Ile, Asn395Ser, Thr426Ala) (receptor) MGSAGESDQITLPKNEVQLNAYVLQEPPKGETCTYDWQLITHPRDYSGEMEGEHSQILKLSNLTPGLYEFKVIVEGQNAHSEGYISVTVEPEPRKNRPPIAIVSPQFQEISLPTTSAVIDGSQSTDDDKIVQYHWEELKGPLREEKISEDTAILKLSKLVPGNYTFRLTVVDSDGATDSTTANLTVNKAVDHHHHHH",70.5
5,"AAV-binding protein No. 142 (AVR8g + Glu378Gly, Arg403His) (receptor) MGSAGESDQITLPKNEVQLNAYVLQEPPKGETCTYDWQLITHPRDYSGEMEGEHSQILKLSNLTPGLYGFKVIVEGQNAHSEGYVNVTVEPEPHKNRPPIAIVSPQFQEISLPTTSTVIDGSQSTDDDKIVQYHWEELKGPLREEKISEDTAILKLSKLVPGNYTFRLTVVDSDGATDSTTANLTVNKAVDHHHHHH",76.6
6,"AVR10 (AAV-binding protein No. 143; AVR8g + Val381Ala, Ile382Val) (receptor) MGSAGESDQITLPKNEVQLNAYVLQEPPKGETCTYDWQLITHPRDYSGEMEGEHSQILKLSNLTPGLYEFKAVVEGQNAHSEGYVNVTVEPEPRKNRPPIAIVSPQFQEISLPTTSTVIDGSQSTDDDKIVQYHWEELKGPLREEKISEDTAILKLSKLVPGNYTFRLTVVDSDGATDSTTANLTVNKAVDHHHHHH",90.3
7,"AAV-binding protein No. 144 (AVR8g + Val383Ala, Gln415Arg) (receptor) MGSAGESDQITLPKNEVQLNAYVLQEPPKGETCTYDWQLITHPRDYSGEMEGEHSQILKLSNLTPGLYEFKVIAEGQNAHSEGYVNVTVEPEPRKNRPPIAIVSPRFQEISLPTTSTVIDGSQSTDDDKIVQYHWEELKGPLREEKISEDTAILKLSKLVPGNYTFRLTVVDSDGATDSTTANLTVNKAVDHHHHHH",65.7
8,"AAV-binding protein No. 150 (AVR8g + Val396Ala, Gln441Arg, Lys448Glu) (receptor) MGSAGESDQITLPKNEVQLNAYVLQEPPKGETCTYDWQLITHPRDYSGEMEGEHSQILKLSNLTPGLYEFKVIVEGQNAHSEGYVNATVEPEPRKNRPPIAIVSPQFQEISLPTTSTVIDGSQSTDDDKIVRYHWEELEGPLREEKISEDTAILKLSKLVPGNYTFRLTVVDSDGATDSTTANLTVNKAVDHHHHHH",49.7
9,"AAV-binding protein No. 141 (AVR8g + Leu376Pro, Gly(Ser)390Gly) (receptor, Gly(Ser)390Gly read as Ser390 of AVR8g back to the wild-type Gly, so Gly390Ser is not applied) MGSAGESDQITLPKNEVQLNAYVLQEPPKGETCTYDWQLITHPRDYSGEMEGEHSQILKLSNLTPGPYEFKVIVEGQNAHGEGYVNVTVEPEPRKNRPPIAIVSPQFQEISLPTTSTVIDGSQSTDDDKIVQYHWEELKGPLREEKISEDTAILKLSKLVPGNYTFRLTVVDSDGATDSTTANLTVNKAVDHHHHHH",85
10,"AAV-binding protein No. 140 (AVR8g + Leu372Pro, Val396Ala) (receptor) MGSAGESDQITLPKNEVQLNAYVLQEPPKGETCTYDWQLITHPRDYSGEMEGEHSQILKLSNPTPGLYEFKVIVEGQNAHSEGYVNATVEPEPRKNRPPIAIVSPQFQEISLPTTSTVIDGSQSTDDDKIVQYHWEELKGPLREEKISEDTAILKLSKLVPGNYTFRLTVVDSDGATDSTTANLTVNKAVDHHHHHH",92.8
11,"AAV-binding protein No. 138 (AVR8g + Gly361Cys, Gly(Ser)390Gly) (receptor, Gly(Ser)390Gly read as Ser390 of AVR8g back to the wild-type Gly, so Gly390Ser is not applied) MGSAGESDQITLPKNEVQLNAYVLQEPPKGETCTYDWQLITHPRDYSGEMECEHSQILKLSNLTPGLYEFKVIVEGQNAHGEGYVNVTVEPEPRKNRPPIAIVSPQFQEISLPTTSTVIDGSQSTDDDKIVQYHWEELKGPLREEKISEDTAILKLSKLVPGNYTFRLTVVDSDGATDSTTANLTVNKAVDHHHHHH",51.5
12,"AAV-binding protein No. 147 (AVR8g + Phe379Cys, Gln432Leu, Ser488Leu) (receptor) MGSAGESDQITLPKNEVQLNAYVLQEPPKGETCTYDWQLITHPRDYSGEMEGEHSQILKLSNLTPGLYECKVIVEGQNAHSEGYVNVTVEPEPRKNRPPIAIVSPQFQEISLPTTSTVIDGSLSTDDDKIVQYHWEELKGPLREEKISEDTAILKLSKLVPGNYTFRLTVVDSDGATDLTTANLTVNKAVDHHHHHH",79.7
13,"AAV-binding protein No. 137 (AVR8g + Thr341Pro, Phe379Ser) (receptor) MGSAGESDQITLPKNEVQLNAYVLQEPPKGEPCTYDWQLITHPRDYSGEMEGEHSQILKLSNLTPGLYESKVIVEGQNAHSEGYVNVTVEPEPRKNRPPIAIVSPQFQEISLPTTSTVIDGSQSTDDDKIVQYHWEELKGPLREEKISEDTAILKLSKLVPGNYTFRLTVVDSDGATDSTTANLTVNKAVDHHHHHH",86.3
14,"AAV-binding protein No. 148 (AVR8g + Glu384Val, Gln432Arg, Ile456Val) (receptor) MGSAGESDQITLPKNEVQLNAYVLQEPPKGETCTYDWQLITHPRDYSGEMEGEHSQILKLSNLTPGLYEFKVIVVGQNAHSEGYVNVTVEPEPRKNRPPIAIVSPQFQEISLPTTSTVIDGSRSTDDDKIVQYHWEELKGPLREEKVSEDTAILKLSKLVPGNYTFRLTVVDSDGATDSTTANLTVNKAVDHHHHHH",37.4
15,"AAV-binding protein No. 146 (AVR8g + Leu372Gln, Leu376Pro, Val394Asp) (receptor) MGSAGESDQITLPKNEVQLNAYVLQEPPKGETCTYDWQLITHPRDYSGEMEGEHSQILKLSNQTPGPYEFKVIVEGQNAHSEGYDNVTVEPEPRKNRPPIAIVSPQFQEISLPTTSTVIDGSQSTDDDKIVQYHWEELKGPLREEKISEDTAILKLSKLVPGNYTFRLTVVDSDGATDSTTANLTVNKAVDHHHHHH",81.4
